Reference: publication PMC10786891, “Massively parallel profiling of RNA-targeting CRISPR-Cas13d”
Substitutions are numbered along the chain they refer to. Numbers in names are those of the source.

T1: EsCas13d, nuclease-dead (Eubacterium siraeum, UniProt B0MS50, R295A;H300A;R849A;H854A)
T1 sequence: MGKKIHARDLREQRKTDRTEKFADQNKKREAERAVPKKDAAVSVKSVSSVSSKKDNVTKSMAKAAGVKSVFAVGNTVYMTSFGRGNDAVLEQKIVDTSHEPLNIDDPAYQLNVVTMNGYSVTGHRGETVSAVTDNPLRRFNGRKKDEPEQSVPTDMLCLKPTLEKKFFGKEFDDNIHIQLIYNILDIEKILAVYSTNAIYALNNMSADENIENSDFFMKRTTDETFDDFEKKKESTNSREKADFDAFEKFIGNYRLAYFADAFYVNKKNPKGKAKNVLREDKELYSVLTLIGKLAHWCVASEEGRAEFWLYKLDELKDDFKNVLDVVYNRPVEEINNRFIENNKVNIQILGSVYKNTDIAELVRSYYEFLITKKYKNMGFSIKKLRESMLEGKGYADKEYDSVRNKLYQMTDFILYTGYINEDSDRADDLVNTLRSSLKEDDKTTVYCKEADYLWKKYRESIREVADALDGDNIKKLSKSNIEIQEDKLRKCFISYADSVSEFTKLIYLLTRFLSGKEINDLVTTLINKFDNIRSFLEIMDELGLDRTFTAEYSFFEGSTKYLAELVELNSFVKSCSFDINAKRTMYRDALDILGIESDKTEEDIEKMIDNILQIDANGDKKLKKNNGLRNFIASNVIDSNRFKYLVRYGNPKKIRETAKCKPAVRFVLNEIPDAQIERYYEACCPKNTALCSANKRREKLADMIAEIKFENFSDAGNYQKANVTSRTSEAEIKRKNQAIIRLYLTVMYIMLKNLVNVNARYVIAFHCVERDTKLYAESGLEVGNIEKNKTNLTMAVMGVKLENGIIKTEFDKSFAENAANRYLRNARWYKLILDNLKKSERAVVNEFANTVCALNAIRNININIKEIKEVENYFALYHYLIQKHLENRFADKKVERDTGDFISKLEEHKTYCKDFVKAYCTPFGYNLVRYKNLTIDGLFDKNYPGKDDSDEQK

B1: target 3 A9G,U21A (mixed)
RNA 1: CACCCGUGCAAAAUUGCAGGGGUCUAAAACGACCUGAAUAUUUCAGAUCAAA
RNA 2: GGGAAUGGAUCCACAUCUACGAAUUCGUUUAUGAUCUGAAAUGUUCAGGUCUGCAGAUCGGAAGAGCACACGU
B2: target 3 insC 3' of 22,insC 3' of 4 (mixed)
RNA 1: B1 RNA 1
RNA 2: GGGAAUGGAUCCACAUCUACGAAUUCGUUUCUUGAUCUGAAAUAUUCAGCGUCUGCAGAUCGGAAGAGCACACGU
B3: target 3 insC 3' of 9,insU 3' of 6 (mixed)
RNA 1: B1 RNA 1
RNA 2: GGGAAUGGAUCCACAUCUACGAAUUCGUUUUUGAUCUGAAAUACUUCUAGGUCUGCAGAUCGGAAGAGCACACGU
B4: target 3 G3C,U22A (mixed)
RNA 1: B1 RNA 1
RNA 2: B1 RNA 2 with U30A, A31U, G43A, G49C
B5: target 3 del4,del22 (mixed)
RNA 1: B1 RNA 1
RNA 2: GGGAAUGGAUCCACAUCUACGAAUUCGUUUUGAUCUGAAAUAUUCAGUCUGCAGAUCGGAAGAGCACACGU
B6: target 3 A5G,U8C (mixed)
RNA 1: B1 RNA 1
RNA 2: B1 RNA 2 with A31U, G43A, U44C, A47G
B7: target 3 G3U,U22A (mixed)
RNA 1: B1 RNA 1
RNA 2: B1 RNA 2 with U30A, A31U, G43A, G49U
B8: target 3 U2G,C6G (mixed)
RNA 1: B1 RNA 1
RNA 2: B1 RNA 2 with A31U, G43A, C46G, U50G
B9: target 3 insA 3' of 4,insA 3' of 3 (mixed)
RNA 1: B1 RNA 1
RNA 2: B3 RNA 2 with C44U, U46C, C47A, U48G, G51A
B10: target 3 insA 3' of 2,insA 3' of 2 (mixed)
RNA 1: B1 RNA 1
RNA 2: B3 RNA 2 with C44U, U46C, C47A, U48G, A49G, G50U, G51A, U52A
B11: target 3 insA 3' of 15,insC 3' of 2 (mixed)
RNA 1: B1 RNA 1
RNA 2: B3 RNA 2 with G38A, A39G, U42A, A43U, C44A, U48A, A49G, G51U, U52C
B12: target 3 G4A (mixed)
RNA 1: B1 RNA 1
RNA 2: B1 RNA 2 with A31U, G43A, G48A
B13: target 3 C6U,U22C (mixed)
RNA 1: B1 RNA 1
RNA 2: B1 RNA 2 with U30C, A31U, G43A, C46U
B14: target 3 A5G,U21A (mixed)
RNA 1: B1 RNA 1
RNA 2: B1 RNA 2 with G43A, A47G
B15: target 3 insU 3' of 22,insG 3' of 5 (mixed)
RNA 1: B1 RNA 1
RNA 2: B2 RNA 2 with C31U, C50G
B16: target 3 U2A,A12C (mixed)
RNA 1: B1 RNA 1
RNA 2: B1 RNA 2 with A31U, A40C, G43A, U50A
B17: target 3 insC 3' of 11,insG 3' of 5 (mixed)
RNA 1: B1 RNA 1
RNA 2: B3 RNA 2 with U42C, A43U, C44A, U48A, A49G
B18: target 3 insC 3' of 9,insU 3' of 4 (mixed)
RNA 1: B1 RNA 1
RNA 2: B3 RNA 2 with U48A, A49G, G50U
B19: target 3 insG 3' of 7,insG 3' of 6 (mixed)
RNA 1: B1 RNA 1
RNA 2: B3 RNA 2 with C44U, U46G, U48G
B20: target 3 C1G,U2C (mixed)
RNA 1: B1 RNA 1
RNA 2: B1 RNA 2 with A31U, G43A, U50C, C51G
B21: target 3 insC 3' of 8,insU 3' of 3 (mixed)
RNA 1: B1 RNA 1
RNA 2: B3 RNA 2 with C44U, U45C, U48A, A49G, G51U
B22: target 3 insU 3' of 11,insU 3' of 4 (mixed)
RNA 1: B1 RNA 1
RNA 2: B3 RNA 2 with A43U, C44A, U48A, A49G, G50U
B23: target 3 U2A,U21C (mixed)
RNA 1: B1 RNA 1
RNA 2: B1 RNA 2 with A31C, G43A, U50A
B24: target 3 insC 3' of 11,insC 3' of 2 (mixed)
RNA 1: B1 RNA 1
RNA 2: B3 RNA 2 with U42C, A43U, C44A, U48A, A49G, G51U, U52C
B25: target 3 insA 3' of 21,insA 3' of 3 (mixed)
RNA 1: B1 RNA 1
RNA 2: B2 RNA 2 with C31U, U32A, C50G, G51A
B26: target 3 A5U,U22A (mixed)
RNA 1: B1 RNA 1
RNA 2: B1 RNA 2 with U30A, A31U, G43A, A47U
B27: target 3 insU 3' of 5,insC 3' of 4 (mixed)
RNA 1: B1 RNA 1
RNA 2: B3 RNA 2 with C44U, U46C, C47A, A49G, G50C
B28: target 3 del5,del6 (mixed)
RNA 1: B1 RNA 1
RNA 2: GGGAAUGGAUCCACAUCUACGAAUUCGUUUUUGAUCUGAAAUAUUGGUCUGCAGAUCGGAAGAGCACACGU
B29: target 3 insA 3' of 7,insU 3' of 6 (mixed)
RNA 1: B1 RNA 1
RNA 2: B3 RNA 2 with C44U, U46A
B30: target 1 insU 3' of 17,insG 3' of 7 (mixed)
RNA 1: CACCCGUGCAAAAAUGCAGGGGUCUAAAACUGAGCGGAUAACCUCUCUAUGG
RNA 2: GGGAAUGGAUCCACAUCUACGAAUUCGUACCAUAGUAGAGGUUAUCGCGCUCACCGAGAUCGGAAGAGCACACGU
B31: target 1 insG 3' of 9,insA 3' of 4 (mixed)
RNA 1: B30 RNA 1
RNA 2: GGGAAUGGAUCCACAUCUACGAAUUCGUACCAUAGAGAGGUUAGUCCGCAUCACCGAGAUCGGAAGAGCACACGU
B32: target 1 insU 3' of 21,insG 3' of 1 (mixed)
RNA 1: B30 RNA 1
RNA 2: GGGAAUGGAUCCACAUCUACGAAUUCGUACCUAUAGAGAGGUUAUCCGCUCAGCCGAGAUCGGAAGAGCACACGU
B33: target 1 U10G,A16C (mixed)
RNA 1: B30 RNA 1
RNA 2: GGGAAUGGAUCCACAUCUACGAAUUCGUACCAUAGCGAGGUGAUCCGCUCACCGAGAUCGGAAGAGCACACGU

These binders were tested against T1, EsCas13d, nuclease-dead (assay: crRNA (strand 1, pre-loaded); Mg2+; 40 mM Tris-HCl pH 7.5, 150 mM NaCl, 6 mM MgCl2, 1 mM DTT, 0.1% Tween-20, 0.2 mg/ml BSA; 25 C; 10 min per concentration, then washed). Conditions: tags: His6-TwinStrep-SUMO cleaved; N-terminal SNAP kept (SNAP-Surface 488); label: 3' end held by stalled T7 RNA polymerase.

| Binder | Kd [nM] |
| --- | --- |
| B1 | 95.5 ± 22.5 |
| B2 | 39 ± 12 |
| B3 | 82 ± 14.5 |
| B4 | 16.5 ± 1.4 |
| B5 | 16.6 ± 2.3 |
| B6 | 86.5 ± 13 |
| B7 | 20.6 ± 2.75 |
| B8 | 21.8 ± 2.7 |
| B9 | 50 ± 7.5 |
| B10 | 30.4 ± 3.8 |
| B11 | ~82 |
| B12 | 4.89 ± 0.35 |
| B13 | 14.5 ± 1.85 |
| B14 | 98 ± 44.5 |
| B15 | 17.4 ± 1.7 |
| B16 | 33 ± 5.5 |
| B17 | 86.5 ± 29 |

| Binder | Kd [nM] |
| --- | --- |
| B18 | 41.5 ± 6 |
| B19 | 24.9 ± 1.9 |
| B20 | 17.1 ± 3.8 |
| B21 | 59 ± 25.5 |
| B22 | 23.6 ± 4.15 |
| B23 | 39.5 ± 11 |
| B24 | 67 ± 10 |
| B25 | ~69 |
| B26 | 48 ± 10 |
| B27 | 6.45 ± 0.65 |
| B28 | 72 ± 9 |
| B29 | 17.9 ± 1.2 |
| B30 | 13.7 ± 0.6 |
| B31 | 9.6 ± 1 |
| B32 | 24.9 ± 2.3 |
| B33 | 57 ± 10 |
